Publication PMC7105484, “Crystal structures of REF6 and its complex with DNA reveal diverse recognition mechanisms” (Cell Discovery, 2020)
Residue numbers refer to the chain shown, from its start.

Tests used:
Assay in all cases: MST; MST: 20 mM HEPES pH 7.3, 150 mM NaCl, 0.2 mM TCEP, 0.5% CA-630, 25 C; EMSA: 30 uM protein, 10 uM dsDNA, 20 mM Tris pH 8.0, 100 mM NaCl, 2.5 mM MgCl2, 0.1% CA-630, 10% glycerol, 1 uM ZnSO4, 1 mM DTT, 4 C
Settings in all cases: protein: recombinant; tags: His6-MBP or GST, TEV-cleavable; label: FAM in MST; none in crystal and EMSA; 5' overhang 1 nt on both strands, 15 bp
REF6 F1339A = target: T1, REF6 F1339A (Arabidopsis thaliana, UniProt Q9STM3 1223-1360, F1339A)
T1 sequence: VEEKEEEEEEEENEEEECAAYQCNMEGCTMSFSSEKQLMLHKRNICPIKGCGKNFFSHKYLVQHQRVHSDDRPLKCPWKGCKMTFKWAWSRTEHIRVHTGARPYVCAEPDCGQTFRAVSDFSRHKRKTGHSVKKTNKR

REF6 E1315A = target: T2, REF6 E1315A (Arabidopsis thaliana, UniProt Q9STM3 1223-1360, E1315A)
T2 sequence: T1 sequence with E93A, A117F

REF6 Y1282A = target: T3, REF6 Y1282A (Arabidopsis thaliana, UniProt Q9STM3 1223-1360, Y1282A)
T3 sequence: T1 sequence with Y60A, A117F

B1: NAC004 m5 (dsDNA)
DNA 1: CTTTCTCTGTTTTGTC
DNA 2: GGACAAAACAGAGAAA
Kd (REF6 F1339A): 500 nM | Kd (REF6 E1315A): 3700 nM | Kd (REF6 Y1282A): 1100 nM
